# IntAct's records for PubMed 29892012
# B1: Liprin-alpha-1 (Homo sapiens), Q13136 (parent)
# chain: MMCEVMPTISEAEGPPGGGGGHGSGSPSQPDADSHFEQLMVSMLEERDRLLDTLRETQETLALTQGKLHEVGHERDSLQRQLNTALPQEFAALTKELNVCREQLLEREEEIAELKAERNNTRLLLEHLECLVSRHERSLRMTVVKRQAQSPAGVSSEVEVLKALKSLFEHHKALDEKVRERLRVALERCSLLEEELGATHKELMILKEQNNQKKTLTDGVLDINHEQENTPSTSGKRSSDGSLSHEEDLAKVIELQEIISKQSREQSQMKERLASLSSHVTELEEDLDTARKDLIKSEEMNTKLQRDVREAMAQKEDMEERITTLEKRYLAAQREATSVHDLNDKLENEIANKDSMHRQTEDKNRQLQERLELAEQKLQQTLRKAETLPEVEAELAQRVAALSKAEERHGNIEERLRQMEAQLEEKNQELQRARQREKMNEEHNKRLSDTVDKLLSESNERLQLHLKERMAALEDKNSLLREVESAKKQLEETQHDKDQLVLNIEALRAELDHMRLRGASLHHGRPHLGSVPDFRFPMADGHTDSYSTSAVLRRPQKGRLAALRDEPSKVQTLNEQDWERAQQASVLANVAQAFESDADVSDGEDDRDTLLSSVDLLSPSGQADAHTLAMMLQEQLDAINKEIRLIQEEKENTEQRAEEIESRVGSGSLDNLGRFRSMSSIPPYPASSLASSSPPGSGRSTPRRIPHSPAREVDRLGVMTLLPPSREEVRDDKTTIKCETSPPSSPRALRLDRLHKGALHTVSHEDIRDIRNSTGSQDGPVSNPSSSNSSQDSLHKAPKKKGIKSSIGRLFGKKEKGRPGQTGKEALGQAGVSETDNSSQDALGLSKLGGQAEKNRKLQKKHELLEEARRQGLPFAQWDGPTVVVWLELWVGMPAWYVAACRANVKSGAIMSALSDTEIQREIGISNPLHRLKLRLAIQEIMSLTSPSAPPTSRTTLAYGDMNHEWIGNEWLPSLGLPQYRSYFMECLVDARMLDHLTKKDLRGQLKMVDSFHRNSFQCGIMCLRRLNYDRKELERKREESQSEIKDVLVWSNDRVIRWILSIGLKEYANNLIESGVHGALLALDETFDFSALALLLQIPTQNTQARAVLEREFNNLLVMGTDRRFDEDDDKSFRRAPSWRKKFRPKDIRGLAAGSAETLPANFRVTSSMSSPSMQPKKMQMDGNVSGTQRLDSATVRTYSC
# partner: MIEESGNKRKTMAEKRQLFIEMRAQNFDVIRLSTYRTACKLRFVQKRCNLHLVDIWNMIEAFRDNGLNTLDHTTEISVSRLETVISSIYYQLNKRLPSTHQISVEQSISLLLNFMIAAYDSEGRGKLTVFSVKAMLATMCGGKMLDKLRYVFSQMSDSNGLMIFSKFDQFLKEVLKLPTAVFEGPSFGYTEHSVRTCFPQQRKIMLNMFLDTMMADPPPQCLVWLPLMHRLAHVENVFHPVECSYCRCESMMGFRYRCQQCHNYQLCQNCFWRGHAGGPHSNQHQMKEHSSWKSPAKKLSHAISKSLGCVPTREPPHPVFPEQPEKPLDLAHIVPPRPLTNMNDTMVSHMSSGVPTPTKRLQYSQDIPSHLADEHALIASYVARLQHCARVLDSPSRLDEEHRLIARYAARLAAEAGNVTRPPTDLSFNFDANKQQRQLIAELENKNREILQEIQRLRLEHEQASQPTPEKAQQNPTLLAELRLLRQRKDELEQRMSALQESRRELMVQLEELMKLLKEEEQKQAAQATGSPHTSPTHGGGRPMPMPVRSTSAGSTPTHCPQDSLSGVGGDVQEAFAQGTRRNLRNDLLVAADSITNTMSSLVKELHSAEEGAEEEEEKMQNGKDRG
# B2: Liprin-alpha-1 (Homo sapiens), Q13136 (parent)
# chain: B1 chain
# B3: Liprin-alpha-1 (Homo sapiens), Q13136 (parent)
# chain: B1 chain
# partner: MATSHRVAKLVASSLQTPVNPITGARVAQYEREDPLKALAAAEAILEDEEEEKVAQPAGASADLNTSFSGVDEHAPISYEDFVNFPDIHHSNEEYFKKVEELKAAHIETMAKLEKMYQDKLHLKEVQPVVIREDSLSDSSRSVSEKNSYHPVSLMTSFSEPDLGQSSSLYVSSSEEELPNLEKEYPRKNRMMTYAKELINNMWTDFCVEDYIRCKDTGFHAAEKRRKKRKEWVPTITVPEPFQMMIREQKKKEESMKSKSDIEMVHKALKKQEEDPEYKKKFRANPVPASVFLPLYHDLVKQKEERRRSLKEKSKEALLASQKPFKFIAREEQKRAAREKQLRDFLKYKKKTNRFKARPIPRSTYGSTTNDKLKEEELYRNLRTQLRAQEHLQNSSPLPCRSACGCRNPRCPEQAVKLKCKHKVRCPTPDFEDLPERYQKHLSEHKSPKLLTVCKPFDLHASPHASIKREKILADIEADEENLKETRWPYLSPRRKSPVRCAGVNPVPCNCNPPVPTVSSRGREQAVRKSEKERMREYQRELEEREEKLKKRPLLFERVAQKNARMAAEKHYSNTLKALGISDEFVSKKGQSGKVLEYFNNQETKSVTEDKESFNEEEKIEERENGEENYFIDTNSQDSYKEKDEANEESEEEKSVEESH
# B4: BTB/POZ domain-containing protein KCTD14 (Homo sapiens), Q9BQ13 (parent)
# chain: MWQGCAVERPVGRMTSQTPLPQSPRPRRPTMSTVVELNVGGEFHTTTLGTLRKFPGSKLAEMFSSLAKASTDAEGRFFIDRPSTYFRPILDYLRTGQVPTQHIPEVYREAQFYEIKPLVKLLEDMPQIFGEQVSRKQFLLQVPGYSENLELMVRLARAEAITARKSSVLVCLVETEEQDAYYSEVLCFLQDKKMFKSVVKFGPWKAVLDNSDLMHCLEMDIKAQGYKVFSKFYLTYPTKRNEFHFNIYSFTFTWW
# B5: CD151 antigen (Homo sapiens), P48509 (parent)
# chain: MGEFNEKKTTCGTVCLKYLLFTYNCCFWLAGLAVMAVGIWTLALKSDYISLLASGTYLATAYILVVAGTVVMVTGVLGCCATFKERRNLLRLYFILLLIIFLLEIIAGILAYAYYQQLNTELKENLKDTMTKRYHQPGHEAVTSAVDQLQQEFHCCGSNNSQDWRDSEWIRSQEAGGRVVPDSCCKTVVALCGQRDHASNIYKVEGGCITKLETFIQEHLRVIGAVGIGIACVQVFGMIFTCCLYRSLKLEHY
# B6: Protein arginine N-methyltransferase 8 (Homo sapiens), Q9NR22 (parent)
# chain: MGMKHSSRCLLLRRKMAENAAESTEVNSPPSQPPQPVVPAKPVQCVHHVSTQPSCPGRGKMSKLLNPEEMTSRDYYFDSYAHFGIHEEMLKDEVRTLTYRNSMYHNKHVFKDKVVLDVGSGTGILSMFAAKAGAKKVFGIECSSISDYSEKIIKANHLDNIITIFKGKVEEVELPVEKVDIIISEWMGYCLFYESMLNTVIFARDKWLKPGGLMFPDRAALYVVAIEDRQYKDFKIHWWENVYGFDMTCIRDVAMKEPLVDIVDPKQVVTNACLIKEVDIYTVKTEELSFTSAFCLQIQRNDYVHALVTYFNIEFTKCHKKMGFSTAPDAPYTHWKQTVFYLEDYLTVRRGEEIYGTISMKPNAKNVRDLDFTVDLDFKGQLCETSVSNDYKMR
# partner: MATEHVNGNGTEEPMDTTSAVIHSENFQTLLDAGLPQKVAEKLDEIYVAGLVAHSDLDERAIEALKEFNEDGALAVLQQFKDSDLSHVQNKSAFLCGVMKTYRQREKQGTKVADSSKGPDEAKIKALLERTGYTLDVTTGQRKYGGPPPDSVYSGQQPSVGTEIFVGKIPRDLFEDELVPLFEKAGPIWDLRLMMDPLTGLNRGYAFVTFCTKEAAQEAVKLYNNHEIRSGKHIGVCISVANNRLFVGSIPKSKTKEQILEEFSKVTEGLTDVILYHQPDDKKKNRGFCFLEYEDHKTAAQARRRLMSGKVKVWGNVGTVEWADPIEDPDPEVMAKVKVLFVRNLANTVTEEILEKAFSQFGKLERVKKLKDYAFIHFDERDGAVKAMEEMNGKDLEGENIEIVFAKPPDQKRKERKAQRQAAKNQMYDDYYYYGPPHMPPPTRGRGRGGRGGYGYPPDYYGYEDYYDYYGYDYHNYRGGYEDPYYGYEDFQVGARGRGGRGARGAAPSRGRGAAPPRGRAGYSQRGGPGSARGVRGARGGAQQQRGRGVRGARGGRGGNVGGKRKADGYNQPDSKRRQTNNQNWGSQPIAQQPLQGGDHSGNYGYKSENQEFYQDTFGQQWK
# Variants of: B1
# Details: with dtnb_human DTNB
row,Variant,effect of a mutation on the interaction
1,P389L,with no effect

# Variants of: B2
# Details: with 2a5d_human PPP2R5D
row,Variant,effect of a mutation on the interaction
1,L330F,disrupting interaction strength

# Variants of: B2
# Details: with ccnh_human CCNH
row,Variant,effect of a mutation on the interaction
1,L330F,disrupting interaction strength

# Variants of: B2
# Details: with txlna_human TXLNA
row,Variant,effect of a mutation on the interaction
1,P389L,with no effect

# Variants of: B2
# Details: with 2a5d_human PPP2R5D
# Remark: another data set of the same source
row,Variant,effect of a mutation on the interaction
1,P389L,with no effect

# Variants of: B2
# Details: with ccnh_human CCNH
# Remark: another data set of the same source
row,Variant,effect of a mutation on the interaction
1,P389L,with no effect

# Variants of: B3
# Details: with FAM161A
row,Variant,effect of a mutation on the interaction
1,L330F,disrupting interaction strength

# Variants of: B3
# Details: with FAM161A
# Remark: another data set of the same source
row,Variant,effect of a mutation on the interaction
1,P389L,with no effect

# Variants of: B4
# Details: with stk16_human STK16, O75716
# stk16_human STK16, O75716, sequence (O75716 whole entry): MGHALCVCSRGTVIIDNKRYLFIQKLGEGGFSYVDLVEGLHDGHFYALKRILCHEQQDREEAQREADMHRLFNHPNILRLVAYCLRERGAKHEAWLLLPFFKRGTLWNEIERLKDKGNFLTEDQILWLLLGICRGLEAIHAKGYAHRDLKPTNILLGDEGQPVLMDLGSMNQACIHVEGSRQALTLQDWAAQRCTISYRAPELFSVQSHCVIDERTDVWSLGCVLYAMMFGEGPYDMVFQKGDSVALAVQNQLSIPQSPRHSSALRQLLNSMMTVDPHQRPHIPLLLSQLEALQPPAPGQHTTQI
row,Variant,effect of a mutation on the interaction
1,V168M,disrupting interaction strength

# Variants of: B5
# Details: with astrc_human GRAMD1C
row,Variant,effect of a mutation on the interaction
1,A67V,with no effect

# Variants of: B5
# Details: with astrc_human GRAMD1C
# Remark: another data set of the same source
row,Variant,effect of a mutation on the interaction
1,S158T,with no effect

# Variants of: B6
# Details: with hnrpq_human SYNCRIP
row,Variant,effect of a mutation on the interaction
1,R350S,with no effect
